The text below walks through data of US20220227850A1 (CRESCENDO BIOLOGICS, published 2022).

Assay [1] deals with T1, Human Serum Albumin (human, UniProt P02768 25-609).
T1 construct: also called HSA
Briefly: SPR, Biacore T200, single cycle kinetics, albumin amine coupled to CM5 chip, 25 C, pH 7.4. As to the method:
(§1) Binding studies with human, cyno and mouse serum albumin in pH 7.4 and pH 6.0 were carried out using single cycle kinetics on a Biacore T200. Serum albumin (HSA, CSA, MSA) were coupled to CM5 chip by amine coupling using the amine reagent coupling kit GE Healthcare BR-1000-50. The surface of the chip was activated according to manufacturer's instructions. Serum albumin (HSA, CSA, MSA) were captured and cross-linked to the sensor chip surface by injecting of serum albumin (HSA, CSA, MSA) in 10 mM sodium acetate, pH 5.0. Following with the injection of 1M Ethanolamine to stabilise the serum albumin on the surface. With this procedure around 300 RU were immobilized.
(§2) For kinetics measurement four-fold serial dilution of the VH single domain antibodies (194D04-2 or 191 E02-2) in either PBST pH 7.4 or PBST pH 6.0 were injected with 120s association and 300s dissociation at the flow rate of 45 μl/min at 25° C. Binding response was corrected by subtracting both the blank flow cell and from buffer run on the same flow cell. The traces were fitted using 1:1 model.

For assay [2], the target named is T2, Cyno Serum Albumin (cyno, UniProt A2V9Z4 25-608).
T2 construct: Serum purified CSA (Abcam ab184894) is named for immunisation; also called CSA; cynomolgus serum albumin
The assay is described as above. The protocol: as §1, §2

In the next assay the target is T3, mouse serum albumin (mouse, UniProt P07724 25-608).
T3 construct: also called MSA
Briefly: SPR, Biacore T200, single cycle kinetics, MSA amine coupled to CM5 chip, pH 7.4. The protocol:
as §1, §2

For assay [3], the target named is T1, Human Serum Albumin. The assay can be described thus: SPR, Biacore T200, single cycle kinetics, albumin amine coupled to CM5 chip, 25 C, pH 6.0. As to the method:
as §1, §2

In assay [4] the target is T2, Cyno Serum Albumin. The description is as above. The protocol: as §1, §2

B1: SEQ ID NO. 30 (VH single domain antibody binding HSA, variant of SEQ ID NO. 1) (VHH)
VHH: EVQLVESGGGLVKPGGSLRLSCAASGFTFSNYNMNWVRQAPGKGLEWVSSISSAGTHIYYADSVKGRFTISRDNAKNSLYLQMNSLRAEDTAVYYCARDPHSTGWYKDFDYWGQGTLVTVSS
notes: Human VH single domain antibody (Humabody) from a transgenic mouse, not a camelid VHH; also called Humabody VH; variant of Humabody 1
For B1, the Kd with Human Serum Albumin [1] was determined as 590 nM; with Cyno Serum Albumin [2], 100 nM; with Human Serum Albumin [3] it was 600 nM; in the assay with Cyno Serum Albumin [4], 99 nM. Also, the koff was found to be 0.19 s⁻¹ in the assay with Human Serum Albumin [1], 0.041 s⁻¹ with Cyno Serum Albumin [2], 0.32 s⁻¹ in the assay with Human Serum Albumin [3] and 0.0644 s⁻¹ in the assay with Cyno Serum Albumin [4]. The kon with Human Serum Albumin [1] was determined as 330000 M⁻¹ s⁻¹; with Cyno Serum Albumin [2], 290000 M⁻¹ s⁻¹; in the assay with Human Serum Albumin [3], 530000 M⁻¹ s⁻¹; in the assay with Cyno Serum Albumin [4], 640000 M⁻¹ s⁻¹. Moreover, in the assay with mouse serum albumin, the binding result was “no binding”.

B2: SEQ ID NO. 5 (VH single domain antibody binding HSA) (VHH)
VHH: EVQLLESGGGLVKPGGSLRLSCAASGFTVSSYTMNWVRQAPGKGLEWVSSISSSGRYIYYADSVKGRFTISRDNAKNSLYLQMNSLRAEDTAVYYCARDPRMVGNPHEFDIWGQGTMVTVSS
notes: Human VH single domain antibody (Humabody) from a transgenic mouse, not a camelid VHH; also called Humabody 2; Humabody VH
For the molecule B2, the equilibrium dissociation constant (Kd) turned out to be 30 nM with Human Serum Albumin [1], 11 nM with Cyno Serum Albumin [2], 37 nM with Human Serum Albumin [3] and 4.9 nM with Cyno Serum Albumin [4]. Also, the off-rate constant (koff) worked out at 0.019 s⁻¹ with Human Serum Albumin [1], 0.0065 s⁻¹ in the assay with Cyno Serum Albumin [2], 0.031 s⁻¹ with Human Serum Albumin [3] and 0.0032 s⁻¹ with Cyno Serum Albumin [4]. Further, the kon turned out to be 620000 M⁻¹ s⁻¹ with Human Serum Albumin [1], 570000 M⁻¹ s⁻¹ with Cyno Serum Albumin [2], 840000 M⁻¹ s⁻¹ in the assay with Human Serum Albumin [3] and 640000 M⁻¹ s⁻¹ with Cyno Serum Albumin [4]. The binding result with mouse serum albumin was “no binding”.
